{
  "source": "patent US20070178575A1",
  "about": "“Identification Of A Nitrilase From B. Japonicum By Rational Genome Mining And Methods Of Use” (priority 2005, published 2007)",
  "key": {"N#CCc1ccccc1": {"system": "T1, N#CCc1ccccc1", "T1 construct": "His tag (C); made in house; host or cells: E. coli Rosetta(DE3)pLysS (plasmid pLH10.3, pET22b)", "assay": "Measurement of kinetic parameters (Bertholet ammonia assay, purified enzyme)", "format": "biochemical, Bradyrhizobium japonicum USDA110", "conditions": "other: purified nitrilase, potassium phosphate buffer pH 7.2, 30° C.", "protocol": "(§1) The standard assays were carried out by mixing the substrate nitrile and purified nitrilase enzyme in potassium phosphate buffer (100 mM, pH 7.2). The reaction mixture was incubated at 30° C. Samples (100 μL) of the reaction mixture were withdrawn at several time intervals and quenched with 10 μl of 1 M HCl. The amount of ammonia produced in the reaction was measured using Bertholet assay as follows: A 100 μL aliquot of each of the following assay reagents was added subsequently: 0.02 M NaOCl, 0.33 M sodium phenoxide and 0.01% sodium nitroprusside solution. The mixture was then heated at 95° C. for 2 min, cooled rapidly in ice-water bath, and 200 μl of the mixture was then placed in a 96-well plate to measure the absorbance at 640 nm using SpectraMax M2 microplate reader (Molecular Devices). The amount of ammonia released during the hydrolysis was calculated by comparison with the standard curve obtained with standard ammonium chloride solution, and the activity was defined as the number of μmol of ammonia produced in 1 minute by 1 mg of enzyme (μmol·min^−1·mg^−1). […], activity assays were performed with different substrate concentrations, and Vmax and Km were calculated by best fitting the curve to experimental data according to Michaelis equation."}, "N#CC(O)c1ccccc1": {"system": "T2, N#CC(O)c1ccccc1", "T2 construct": "His tag (C); made in house; host or cells: E. coli Rosetta(DE3)pLysS (plasmid pLH10.3, pET22b)", "assay": "Measurement of kinetic parameters (Bertholet ammonia assay, purified enzyme)", "format": "biochemical, Bradyrhizobium japonicum USDA110", "conditions": "other: purified nitrilase, potassium phosphate buffer pH 7.2, 30° C.", "protocol": "as §1"}},
  "data": [
    {"substance": "nitrilase bll6402 (Bradyrhizobium diazoefficiens USDA 110)", "values": [
      {"measurement": "Km", "setting": "N#CCc1ccccc1", "value": 100, "unit": "µM"},
      {"measurement": "Vmax", "setting": "N#CCc1ccccc1", "value": 2.2, "unit": "U/mg"},
      {"measurement": "kcat", "setting": "N#CCc1ccccc1", "value": 1.36, "unit": "s⁻¹"},
      {"measurement": "kcat/Km", "setting": "N#CCc1ccccc1", "value": 13600, "unit": "s^−1M^−1"},
      {"measurement": "Km", "setting": "N#CC(O)c1ccccc1", "value": 260, "unit": "µM"},
      {"measurement": "Vmax", "setting": "N#CC(O)c1ccccc1", "value": 44.7, "unit": "U/mg"},
      {"measurement": "kcat", "setting": "N#CC(O)c1ccccc1", "value": 27.0, "unit": "s⁻¹"},
      {"measurement": "kcat/Km", "setting": "N#CC(O)c1ccccc1", "value": 104000, "unit": "M⁻¹ s⁻¹"}
    ]}
  ]
}
